Measured values taken from patent US20230295301A1 (SHANGHAI JUNSHI BIOSCIENCES, published 2023).

T1: huCTLA-4 ECD (his-tag) (human, UniProt P16410 37-162)
T1 construct: also called HX1 hCTLA4 his; HX1 huCTLA4 his; not shown: his-tag
T1 sequence: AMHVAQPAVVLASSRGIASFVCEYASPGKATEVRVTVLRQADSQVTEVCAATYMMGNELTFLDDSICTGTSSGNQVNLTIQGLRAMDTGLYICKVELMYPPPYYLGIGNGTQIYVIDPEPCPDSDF


Biological target: T1, huCTLA-4 ECD (his-tag)
Assay: ELISA, coated huCTLA-4 his
Method: HX1 hCTLA4 his was diluted with PBS (Hyclone) to 1.0 μg/mL, and the dilution was added to a microplate at 100 μL/well. The plate was let stand in an incubator at 37° C. and coated for 90 min and then washed, and 2% BSA was added to the plate at 200 μL/well. The plate was incubated in an incubator at 37° C. for 90 min and then washed. The humanized anti-CTLA-4 antibodies in Table 4 and the control antibody (ipilimumab) were diluted with a diluent (2% BSA) to 1000 ng/mL. The dilution performed each time was not higher than 10-fold. Then, the humanized antibodies and the control antibody were serially diluted 2.5-fold on a sample dilution plate. All the humanized antibody solutions and the control antibody solution were added to a microplate at 100 μL/well. The plate was incubated in an incubator at 37° C. for 60 min and then washed. An HRP-conjugated goat anti-human antibody IgG (Fc specific) was diluted 5000-fold with 2% BSA, and the dilution was added to the microplate at 100 μL/well. The plate was incubated in an incubator at 37° C. for 60 min and then washed. The color development solution TMB was added at 100 μL/well, during which bubbles were avoided. Color development was allowed at 37° C. for 15 min in the dark and then terminated by adding 2 M hydrochloric acid solution at 100 μL/well, during which bubbles were avoided. Reading (wavelength: 450/620 nm) was done within 10 min using a microplate reader.

binding result	Binder
binds	huJS007-48 (antibody, human IgG1, kappa, V domains shown) VH: QVQLQESGPGLVKPSQTLSLTCTVSAYSITSGYYWNWIRQHPGKGLEWIGYIGYDGSNNYNPSLKSRVTISRDTSKNQFSLKLSSVTAADTAVYYCARDYYSGYFDSWGQGTTLTVSS VL: DIQMTQSPSSLSASVGDRVTITCRASQNVGTYVAWYQQKPGKAPKPLIYSTSYRYSGVPSRFSGSGSGTDFTLTISSLQPEDFATYFCHQYDTYPLTFGAGTKLELKR
binds	HuJS007-69 (antibody, V domains shown, 4B7 VH2-4 + 4B7VL6; constant regions not specified) VH: QVQLQESGPGLVKPSQTLSLTCAVSAYSITSGYYWNWIRQHPGKGLEWIGYIGYDGSNNYNPSLKSRVTISRDTSKNQFSLKLSSVTAADTAVYYCARDYYSGYFDSWGQGTTLTVSS VL: DIVMTQSPDSLAVSLGERATINCKASQNVGTYVAWYQQKPGQPPKLLIYSTSYRYSGVPDRFSGSGSGTDFTLTISSLQAEDVAVYYCHQYDTYPLTFGQGTKLEIK
binds	HuJS007-51 (antibody, V domains shown, 4B7 VH2-2 + 4B7VL6; constant regions not specified) VH: QVQLQESGPGLVKPSQTLSLTCTVSAYSITSGYYWNWIRQHPGKGLEWIGYIGYDGSNNYNPSLKSRVTISRDTSKNQFSLKLSSVTAADTAVYYCARDYYSGYFDSWGQGTTLTVSS VL: DIVMTQSPDSLAVSLGERATINCKASQNVGTYVAWYQQKPGQPPKLLIYSTSYRYSGVPDRFSGSGSGTDFTLTISSLQAEDVAVYYCHQYDTYPLTFGQGTKLEIK
binds	HuJS007-60 (antibody, V domains shown, 4B7 VH2-3 + 4B7VL6; constant regions not specified) VH: QVQLQESGPGLVKPSETLSLTCTVSGYSITSGYYWNWIRQPPGKGLEWIGYIGYDGSNNYNPSLKSRVTISRDTSKNQFSLKLSSVTAADTAVYYCARDYYSGYFDSWGQGTTLTVSS VL: DIVMTQSPDSLAVSLGERATINCKASQNVGTYVAWYQQKPGQPPKLLIYSTSYRYSGVPDRFSGSGSGTDFTLTISSLQAEDVAVYYCHQYDTYPLTFGQGTKLEIK
binds	HuJS007-64 (antibody, V domains shown, 4B7 VH2-4 + 4B7VL1; constant regions not specified) VH: QVQLQESGPGLVKPSQTLSLTCAVSAYSITSGYYWNWIRQHPGKGLEWIGYIGYDGSNNYNPSLKSRVTISRDTSKNQFSLKLSSVTAADTAVYYCARDYYSGYFDSWGQGTTLTVSS VL: DIVMTQSPDSLAVSLGERATINCKASQNVGTYVAWYQQKPGQPPKPLIYSTSYRYSGVPDRFSGSGSGTDFTLTISSLQAEDVAVYFCHQYDTYPLTFGAGTKLELK
binds	HuJS007-46 (antibody, V domains shown, 4B7 VH2-2 + 4B7VL1; constant regions not specified) VH: QVQLQESGPGLVKPSQTLSLTCTVSAYSITSGYYWNWIRQHPGKGLEWIGYIGYDGSNNYNPSLKSRVTISRDTSKNQFSLKLSSVTAADTAVYYCARDYYSGYFDSWGQGTTLTVSS VL: DIVMTQSPDSLAVSLGERATINCKASQNVGTYVAWYQQKPGQPPKPLIYSTSYRYSGVPDRFSGSGSGTDFTLTISSLQAEDVAVYFCHQYDTYPLTFGAGTKLELK
binds	HuJS007-71 (antibody, V domains shown, 4B7 VH2-4 + 4B7VL8; constant regions not specified) VH: QVQLQESGPGLVKPSQTLSLTCAVSAYSITSGYYWNWIRQHPGKGLEWIGYIGYDGSNNYNPSLKSRVTISRDTSKNQFSLKLSSVTAADTAVYYCARDYYSGYFDSWGQGTTLTVSS VL: DIVMTQSPDSLAVSLGERATINCKASQNVGTYVAWYQQKPGQPPKPLIYSTSYRYSGVPDRFSGSGSGTDFTLTISSLQAEDVAVYFCHQYDTYPLTFGQGTKLEIK
binds	HuJS007-53 (antibody, V domains shown, 4B7 VH2-2 + 4B7VL8; constant regions not specified) VH: QVQLQESGPGLVKPSQTLSLTCTVSAYSITSGYYWNWIRQHPGKGLEWIGYIGYDGSNNYNPSLKSRVTISRDTSKNQFSLKLSSVTAADTAVYYCARDYYSGYFDSWGQGTTLTVSS VL: DIVMTQSPDSLAVSLGERATINCKASQNVGTYVAWYQQKPGQPPKPLIYSTSYRYSGVPDRFSGSGSGTDFTLTISSLQAEDVAVYFCHQYDTYPLTFGQGTKLEIK
binds	HuJS007-55 (antibody, V domains shown, 4B7 VH2-3 + 4B7VL1; constant regions not specified) VH: QVQLQESGPGLVKPSETLSLTCTVSGYSITSGYYWNWIRQPPGKGLEWIGYIGYDGSNNYNPSLKSRVTISRDTSKNQFSLKLSSVTAADTAVYYCARDYYSGYFDSWGQGTTLTVSS VL: DIVMTQSPDSLAVSLGERATINCKASQNVGTYVAWYQQKPGQPPKPLIYSTSYRYSGVPDRFSGSGSGTDFTLTISSLQAEDVAVYFCHQYDTYPLTFGAGTKLELK

Second part, the binder before the results:

Binder	binding result
HuJS007-73 (antibody, V domains shown, 1A5 VH5 + 4B7VL1; constant regions not specified) VH: QVQLQESGPGLVKPSQTLSLTCAVSGYSISSGYYWNWIRQPPGKGLEWIGYIGYDGSNYYNPSLKSRVTMSVDTSKNQFSLKLSSVTAVDTAVYYCARNYYSGYFDSWGQGTTVTVSS VL: DIVMTQSPDSLAVSLGERATINCKASQNVGTYVAWYQQKPGQPPKPLIYSTSYRYSGVPDRFSGSGSGTDFTLTISSLQAEDVAVYFCHQYDTYPLTFGAGTKLELK	binds
HuJS007-107 (antibody, V domains shown, 4B7 VH2-5 + 4B7VL8; constant regions not specified) VH: QVQLQESGPGLVKPSQTLSLTCAVSGYSITSGYYWNWIRQPPGKGLEWIGYIGYDGSNNYNPSLKNRVTMSVDTSKNQFSLKLSSVTAVDTAVYYCARDYYSGYFDSWGQGTTVTVSS VL: DIVMTQSPDSLAVSLGERATINCKASQNVGTYVAWYQQKPGQPPKPLIYSTSYRYSGVPDRFSGSGSGTDFTLTISSLQAEDVAVYFCHQYDTYPLTFGQGTKLEIK	binds
HuJS007-80 (antibody, V domains shown, 1A5 VH5 + 4B7VL8; constant regions not specified) VH: QVQLQESGPGLVKPSQTLSLTCAVSGYSISSGYYWNWIRQPPGKGLEWIGYIGYDGSNYYNPSLKSRVTMSVDTSKNQFSLKLSSVTAVDTAVYYCARNYYSGYFDSWGQGTTVTVSS VL: DIVMTQSPDSLAVSLGERATINCKASQNVGTYVAWYQQKPGQPPKPLIYSTSYRYSGVPDRFSGSGSGTDFTLTISSLQAEDVAVYFCHQYDTYPLTFGQGTKLEIK	binds
HuJS007-62 (antibody, V domains shown, 4B7 VH2-3 + 4B7VL8; constant regions not specified) VH: QVQLQESGPGLVKPSETLSLTCTVSGYSITSGYYWNWIRQPPGKGLEWIGYIGYDGSNNYNPSLKSRVTISRDTSKNQFSLKLSSVTAADTAVYYCARDYYSGYFDSWGQGTTLTVSS VL: DIVMTQSPDSLAVSLGERATINCKASQNVGTYVAWYQQKPGQPPKPLIYSTSYRYSGVPDRFSGSGSGTDFTLTISSLQAEDVAVYFCHQYDTYPLTFGQGTKLEIK	binds
HuJS007-105 (antibody, V domains shown, 4B7 VH2-5 + 4B7VL6; constant regions not specified) VH: QVQLQESGPGLVKPSQTLSLTCAVSGYSITSGYYWNWIRQPPGKGLEWIGYIGYDGSNNYNPSLKNRVTMSVDTSKNQFSLKLSSVTAVDTAVYYCARDYYSGYFDSWGQGTTVTVSS VL: DIVMTQSPDSLAVSLGERATINCKASQNVGTYVAWYQQKPGQPPKLLIYSTSYRYSGVPDRFSGSGSGTDFTLTISSLQAEDVAVYYCHQYDTYPLTFGQGTKLEIK	binds
HuJS007-78 (antibody, V domains shown, 1A5 VH5 + 4B7VL6; constant regions not specified) VH: QVQLQESGPGLVKPSQTLSLTCAVSGYSISSGYYWNWIRQPPGKGLEWIGYIGYDGSNYYNPSLKSRVTMSVDTSKNQFSLKLSSVTAVDTAVYYCARNYYSGYFDSWGQGTTVTVSS VL: DIVMTQSPDSLAVSLGERATINCKASQNVGTYVAWYQQKPGQPPKLLIYSTSYRYSGVPDRFSGSGSGTDFTLTISSLQAEDVAVYYCHQYDTYPLTFGQGTKLEIK	binds
HuJS007-100 (antibody, V domains shown, 4B7 VH2-5 + 4B7VL1; constant regions not specified) VH: QVQLQESGPGLVKPSQTLSLTCAVSGYSITSGYYWNWIRQPPGKGLEWIGYIGYDGSNNYNPSLKNRVTMSVDTSKNQFSLKLSSVTAVDTAVYYCARDYYSGYFDSWGQGTTVTVSS VL: DIVMTQSPDSLAVSLGERATINCKASQNVGTYVAWYQQKPGQPPKPLIYSTSYRYSGVPDRFSGSGSGTDFTLTISSLQAEDVAVYFCHQYDTYPLTFGAGTKLELK	binds
HuJS007-50 (antibody, V domains shown, 4B7 VH2-2 + 4B7VL5; constant regions not specified) VH: QVQLQESGPGLVKPSQTLSLTCTVSAYSITSGYYWNWIRQHPGKGLEWIGYIGYDGSNNYNPSLKSRVTISRDTSKNQFSLKLSSVTAADTAVYYCARDYYSGYFDSWGQGTTLTVSS VL: DIQMTQSPSSLSASVGDRVTITCQASQNVGTYVAWYQQKPGKAPKPLIYSTSYRYSGVPSRFSGSGSGTDFTFTISSLQPEDIATYFCHQYDTYPLTFGAGTKLELK	binds
HuJS007-49 (antibody, V domains shown, 4B7 VH2-2 + 4B7VL4; constant regions not specified) VH: QVQLQESGPGLVKPSQTLSLTCTVSAYSITSGYYWNWIRQHPGKGLEWIGYIGYDGSNNYNPSLKSRVTISRDTSKNQFSLKLSSVTAADTAVYYCARDYYSGYFDSWGQGTTLTVSS VL: DIQMTQSPSFLSASVGDRVTITCRASQNVGTYVAWYQQKPGKAPKPLIYSTSYRYSGVPSRFSGSGSGTEFTLTISSLQPEDFATYFCHQYDTYPLTFGAGTKLELK	binds
HuJS007-89 (antibody, V domains shown, 1A5 VH6 + 4B7VL8; constant regions not specified) VH: QVQLQESGPGLVKPSQTLSLTCAVSGYSISSGYYWNWIRQFPGKGLEWMGYIGYDGSNYYNPSLKNRVTMSVDTSKNQFSLKLSSVTAVDTAVYYCARNYYSGYFDSWGQGTTVTVSS VL: DIVMTQSPDSLAVSLGERATINCKASQNVGTYVAWYQQKPGQPPKPLIYSTSYRYSGVPDRFSGSGSGTDFTLTISSLQAEDVAVYFCHQYDTYPLTFGQGTKLEIK	binds
